# Results from article PMC12915204, “A Cold Stress‐Activated Endocrine Sentinel Chemical Hormone Promotes Insect Survival via Mitochondrial Adaptations Through the Adipokinetic Hormone Receptor” (Advanced Science, 2025).
# pKd: −log10 of the molar value.
# Columns and labels:
# [1] = biological target: adipokinetic hormone receptor (AKHR) of Monochamus alternatus, overexpressed in Drosophila S2 cells (Monochamus alternatus)
# [2] = tested on: T1, adipokinetic hormone receptor (AKHR); assay: Microscale thermophoresis with AKHR-GFP in S2 cell lysate; supported by calcium imaging in AKHR-expressing S2 cells ([…] asc-C9); assay type: binding, Monochamus alternatus
# T1 construct: GFP-tagged AKHR in S2 cell lysate (AKHR-GFP fusion protein)
"calcium mobilization (Fluo-4 imaging) in AKHR-expressing S2 cells, dose-response to AKH; no response with an empty vector [1] [nM]",Substance,pKd [2]
30,M. alternatus AKH peptide (adipokinetic hormone),
,asc-C9,3.57
